Experimental findings from the Human Domainome abundance scans (Beltran et al. 2025) are described below.

B1: Zinc finger homeobox protein 4, residues 2183 to 2238; numbered along this chain, Q86UP3 (parent)
chain: SSRTRFTDYQLRVLQDFFDTNAYPKDDEIEQLSTVLNLPTRVIVVWFQNARQKARK

± gives the uncertainty stated by the source.

Variants of B1 are the subject of this series. Description: abundance fitness (aPCA) (normalised: wild type 0, dead -1); higher = more abundant; growth selection in yeast, the domain comes from the species named. Particulars: Homo sapiens.
Regarding SSRTRFTDYQLRVLQDFFNTNAYPKDDEIEQLSTVLNLPTRVIVVWFQNARQKARK, the abundance fitness was -0.087 ± 0.14. The figure for SSRTRFTDYQLRVLQDFFMTNAYPKDDEIEQLSTVLNLPTRVIVVWFQNARQKARK is -0.061 ± 0.12. The figure for SSRTRFTDYQLRVLQDFFQTNAYPKDDEIEQLSTVLNLPTRVIVVWFQNARQKARK is -0.071 ± 0.14; for SSRTRFTDYQLRVLQDFFDTNAYCKDDEIEQLSTVLNLPTRVIVVWFQNARQKARK it is -0.567 ± 0.13. The figure for SSRTRFTDYQLRVLQDFFDTNAYEKDDEIEQLSTVLNLPTRVIVVWFQNARQKARK is -0.823 ± 0.14; for SSRTRFTDYQLRVLQDFFDTNAYHKDDEIEQLSTVLNLPTRVIVVWFQNARQKARK it is -0.703 ± 0.21. Regarding SSRTRFTDYQLRVLQDFFDTNAYKKDDEIEQLSTVLNLPTRVIVVWFQNARQKARK, the abundance fitness was -0.817 ± 0.25. The figure for SSRTRFTDYQLRVLQDFFDTNAYGKDDEIEQLSTVLNLPTRVIVVWFQNARQKARK is -0.813 ± 0.087; for SSRTRFTDYQLRVLQDFFDTNAYDKDDEIEQLSTVLNLPTRVIVVWFQNARQKARK it is -0.832 ± 0.18. With SSRTRFTDYQLRVLQDFFDTNAYAKDDEIEQLSTVLNLPTRVIVVWFQNARQKARK the figure was -0.272 ± 0.099; with SSRTRFTDYQLRVLQDFFDTNAYFKDDEIEQLSTVLNLPTRVIVVWFQNARQKARK, -0.792 ± 0.17; with SSRTRFTDYQLRVLQDFFDTNAYIKDDEIEQLSTVLNLPTRVIVVWFQNARQKARK, -0.292 ± 0.18. The figure for SSRTRFTDYQLRVLQDFFDTNCYPKDDEIEQLSTVLNLPTRVIVVWFQNARQKARK is 0.033 ± 0.13; for SSRTRFTDYQLRVLQDFFDTNLYPKDDEIEQLSTVLNLPTRVIVVWFQNARQKARK it is -0.219 ± 0.1; for SSRTRFTDYQLRVLQDFFDTNMYPKDDEIEQLSTVLNLPTRVIVVWFQNARQKARK it is 0.153 ± 0.13.

For SSRTRFTDYQLRVLQDFFDTNKYPKDDEIEQLSTVLNLPTRVIVVWFQNARQKARK, the abundance fitness was -0.116 ± 0.23.

With SSRTRFTDYQLRVLQDFFDTNVYPKDDEIEQLSTVLNLPTRVIVVWFQNARQKARK, the abundance fitness was -0.086 ± 0.1. SSRTRFTDYQLRVLQDFFDTNGYPKDDEIEQLSTVLNLPTRVIVVWFQNARQKARK: the abundance fitness is -0.186 ± 0.086. Take SSRTRFTDYQLRVLQDFFDTNIYPKDDEIEQLSTVLNLPTRVIVVWFQNARQKARK: the abundance fitness was -0.065 ± 0.19. With SSRTRFTDYQLRVLQDFFDTNQYPKDDEIEQLSTVLNLPTRVIVVWFQNARQKARK the figure was 0.005 ± 0.17; with SSRTRFTDYQLRVLQDFFDTNFYPKDDEIEQLSTVLNLPTRVIVVWFQNARQKARK, -0.228 ± 0.22; with SSRTRFTDYQLRVLQDFFDTNPYPKDDEIEQLSTVLNLPTRVIVVWFQNARQKARK, 0.133 ± 0.15.

For SSRTRFTDYQLRVLQDFFDTNNYPKDDEIEQLSTVLNLPTRVIVVWFQNARQKARK, the abundance fitness was -0.077 ± 0.21. With SSRTRFTDYQLRVLQDFFDTNSYPKDDEIEQLSTVLNLPTRVIVVWFQNARQKARK the figure was 0.074 ± 0.098.

Consider SSRTRFTDYQLRVLQDFFDTNEYPKDDEIEQLSTVLNLPTRVIVVWFQNARQKARK, for which the abundance fitness was -0.016 ± 0.13. The figure for SSRTRFTDYQLRVLQDFFDTNWYPKDDEIEQLSTVLNLPTRVIVVWFQNARQKARK is -0.169 ± 0.12. With SSRTRFTDYQLRVLQDFFDTNDYPKDDEIEQLSTVLNLPTRVIVVWFQNARQKARK the figure was 0.002 ± 0.13. Take SSRTRFTDYQLRVLQDFFDTNRYPKDDEIEQLSTVLNLPTRVIVVWFQNARQKARK: the abundance fitness is 0.005 ± 0.086. The figure for SSRTRFTDYQLRVLQDFFDTNYYPKDDEIEQLSTVLNLPTRVIVVWFQNARQKARK is -0.309 ± 0.17. The figure for SSRTRFTDYQLRVLQDFFDLNAYPKDDEIEQLSTVLNLPTRVIVVWFQNARQKARK is -0.205 ± 0.083. With SSRTRFTDYQLRVLQDFFDCNAYPKDDEIEQLSTVLNLPTRVIVVWFQNARQKARK, the abundance fitness stood at 0.002 ± 0.12.

Consider SSRTRFTDYQLRVLQDFFDHNAYPKDDEIEQLSTVLNLPTRVIVVWFQNARQKARK, for which the abundance fitness is -0.179 ± 0.18. The figure for SSRTRFTDYQLRVLQDFFDANAYPKDDEIEQLSTVLNLPTRVIVVWFQNARQKARK is 0.108 ± 0.089; for SSRTRFTDYQLRVLQDFFDPNAYPKDDEIEQLSTVLNLPTRVIVVWFQNARQKARK it is -0.57 ± 0.15. The figure for SSRTRFTDYQLRVLQDFFDQNAYPKDDEIEQLSTVLNLPTRVIVVWFQNARQKARK is -0.196 ± 0.13; for SSRTRFTDYQLRVLQDFFDFNAYPKDDEIEQLSTVLNLPTRVIVVWFQNARQKARK it is -0.503 ± 0.14; for SSRTRFTDYQLRVLQDFFDENAYPKDDEIEQLSTVLNLPTRVIVVWFQNARQKARK it is -0.22 ± 0.12.

Turning to SSRTRFTDYQLRVLQDFFDMNAYPKDDEIEQLSTVLNLPTRVIVVWFQNARQKARK, the abundance fitness is -0.101 ± 0.13. With SSRTRFTDYQLRVLQDFFDGNAYPKDDEIEQLSTVLNLPTRVIVVWFQNARQKARK the figure was -0.041 ± 0.079; with SSRTRFTDYQLRVLQDFFDWNAYPKDDEIEQLSTVLNLPTRVIVVWFQNARQKARK, -0.158 ± 0.1; with SSRTRFTDYQLRVLQDFFDSNAYPKDDEIEQLSTVLNLPTRVIVVWFQNARQKARK, -0.047 ± 0.088. The figure for SSRTRFTDYQLRVLQDFFDVNAYPKDDEIEQLSTVLNLPTRVIVVWFQNARQKARK is -0.199 ± 0.092; for SSRTRFTDYQLRVLQDFFDRNAYPKDDEIEQLSTVLNLPTRVIVVWFQNARQKARK it is 0.072 ± 0.078; for SSRTRFTDYQLRVLQDFFDNNAYPKDDEIEQLSTVLNLPTRVIVVWFQNARQKARK it is -0.058 ± 0.16. For the variant SSRTRFTDYQLRVLQDFFDKNAYPKDDEIEQLSTVLNLPTRVIVVWFQNARQKARK, the abundance fitness amounted to 0.133 ± 0.12. With SSRTRFTDYQLRVLQDFFDDNAYPKDDEIEQLSTVLNLPTRVIVVWFQNARQKARK the figure was -0.205 ± 0.13; with SSRTRFTDYQLRVLQDFFDINAYPKDDEIEQLSTVLNLPTRVIVVWFQNARQKARK, -0.308 ± 0.14.
